Source: article PMC5653234

Assays:
[1] = target: AKAP79-CaNAR (full-length AKAP79 fused to the N-terminus of CaNAR2pax) (human) (UniProt P24588)
[2] = target: AKAP79∆L-CaNAR (AKAP79 lacking residues 122-136 fused to CaNAR2pax) (human) (UniProt P24588)
[3] = target: MBP-AKAP79 (A-kinase anchoring protein 79) with C-terminal 10x His-tag (human) (UniProt P24588); experiment: SEC-MALS; 500 μL purified complex (~2 mg/mL) on a WTC-050S5 SEC column at 0.5 mL/min, in-line refractometer and light scattering
[4] = target: His-tagged AKAP79 C-terminal fragment (PIAIIIT region) (human) (UniProt P24588); experiment: AlphaScreen or HTRF; competition: 100 nM biotinylated PP2B and 100 nM His-tagged AKAP79 or fragment, serial dilutions of untagged PP2B; streptavidin donor and nickel acceptor beads; 25 mM HEPES, pH 7.5, 100 mM NaCl, 0.1% BSA, 3 mM CaCl2, 2 μg/mL CaM; one-site IC50 fit taken to approximate the Kd
[5] = target: His-tagged AKAP79 N-terminal fragment encompassing the LKIP motif (human) (UniProt P24588); experiment: as above
[6] = target: MBP-AKAP79 (A-kinase anchoring protein 79) with C-terminal 10x His-tag (human) (UniProt P24588); experiment: as above

Substance | time to half maximal YFP/CFP FRET response of the reporter after 1 μM ionomycin (HeLa cells) [1] | time to half maximal YFP/CFP FRET response of the reporter after 1 μM ionomycin (HeLa cells) [2] | stoichiometry N [3] | Kd [4] | Kd [5] | Kd [6]
PP2B, endogenous in HEK293 cells (from UniProt Q08209 1-521; P63098 1-170) (complex) | 3.58 min | 2.41 min |  |  |  | 
calmodulin (CaM) (from UniProt P0DP23 1-149) (natural protein; other documents disagree on this pair) |  |  | 1 |  |  | 
PP2B holoenzyme (calcium/calmodulin-dependent protein phosphatase 2B; A and B subunits), untagged (from UniProt Q08209 1-521; P63098 1-170) (complex) |  |  | 1 | 5.6 µM | 81 µM | 12 µM
